Source: patent US20200024330A1

Assays:
[1] = target: Env of all HIV-1 pseudoviruses of the cross-clade 162-pseudovirus panel (n = 162); assay: cell-based or functional assay
[2] = target: Env of the clade A HIV-1 pseudoviruses of the cross-clade 162-pseudovirus panel (n = 26); assay: cell-based or functional assay
[3] = target: Env of the clade AG HIV-1 pseudoviruses of the cross-clade 162-pseudovirus panel (n = 10); assay: cell-based or functional assay
[4] = target: Env of the clade B HIV-1 pseudoviruses of the cross-clade 162-pseudovirus panel (n = 31); assay: cell-based or functional assay
[5] = target: Env of the clade C HIV-1 pseudoviruses of the cross-clade 162-pseudovirus panel (n = 27); assay: cell-based or functional assay
[6] = target: Env of the clade D HIV-1 pseudoviruses of the cross-clade 162-pseudovirus panel (n = 25); assay: cell-based or functional assay
[7] = target: Env of the clade F HIV-1 pseudoviruses of the cross-clade 162-pseudovirus panel (n = 15); assay: cell-based or functional assay
[8] = target: Env of the clade G HIV-1 pseudoviruses of the cross-clade 162-pseudovirus panel (n = 15); assay: cell-based or functional assay
[9] = target: HIV-1 92BR020 envelope glycoprotein (Env) (HIV-1); assay: cell-based or functional assay
[10] = target: HIV-1 92RW020 envelope glycoprotein (Env) (HIV-1); assay: cell-based or functional assay
[11] = target: HIV-1 93IN905 envelope glycoprotein (Env) (HIV-1); assay: cell-based or functional assay
[12] = target: HIV-1 93UG077 envelope glycoprotein (Env) (HIV-1); assay: cell-based or functional assay
[13] = target: HIV-1 94UG103 envelope glycoprotein (Env) (HIV-1); assay: cell-based or functional assay
[14] = target: HIV-1 APV13 envelope glycoprotein (Env) (HIV-1); assay: cell-based or functional assay
[15] = target: HIV-1 APV17 envelope glycoprotein (Env) (HIV-1); assay: cell-based or functional assay
[16] = target: HIV-1 APV6 envelope glycoprotein (Env) (HIV-1); assay: cell-based or functional assay
[17] = target: HIV-1 Env of isolate 93IN905 (HIV-1); assay: cell-based or functional assay
[18] = target: HIV-1 Env of isolate JR-CSF (HIV-1) (UniProt P20871); assay: cell-based or functional assay
[19] = target: HIV-1 Env of isolate MGRM-C-026 (HIV-1); assay: cell-based or functional assay
[20] = target: HIV-1 JRCSF envelope glycoprotein (Env) (HIV-1) (UniProt P20871); assay: cell-based or functional assay
[21] = target: HIV-1 JRFL envelope glycoprotein (Env) (HIV-1); assay: cell-based or functional assay
[22] = target: HIV-1 MGRM-A-010 envelope glycoprotein (Env) (HIV-1); assay: cell-based or functional assay
[23] = target: HIV-1 MGRM-C-026 envelope glycoprotein (Env) (HIV-1); assay: cell-based or functional assay
[24] = target: HIV-1 MGRM-C-027 envelope glycoprotein (Env) (HIV-1); assay: cell-based or functional assay
[25] = target: HIV-1 MGRM-C-028 envelope glycoprotein (Env) (HIV-1); assay: cell-based or functional assay
[26] = target: HIV-1 NL43 envelope glycoprotein (Env) (HIV-1); assay: cell-based or functional assay
[27] = target: JR-FL gp120 ΔV1/ΔV2 (HIV-1 (isolate JR-FL)); assay: ELISA on coated gp120; EC50 by nonlinear regression
[28] = target: JR-FL gp120 ΔV3 (HIV-1 (isolate JR-FL)); assay: as above
[29] = target: WT JR-FL gp120 (HIV-1 (isolate JR-FL)); assay: as above
[30] = target: HIV-1 92BR020 envelope glycoprotein (Env) on pseudovirus (HIV-1); assay: cell-based or functional assay
[31] = target: HIV-1 92RW020 envelope glycoprotein (Env) on pseudovirus (HIV-1); assay: cell-based or functional assay
[32] = target: HIV-1 92TH021 envelope glycoprotein (Env) on pseudovirus (HIV-1); assay: cell-based or functional assay
[33] = target: HIV-1 92UG005 envelope glycoprotein (Env) on pseudovirus (HIV-1); assay: cell-based or functional assay
[34] = target: HIV-1 92UG024 envelope glycoprotein (Env) on pseudovirus (HIV-1); assay: cell-based or functional assay
[35] = target: HIV-1 93IN905 envelope glycoprotein (Env) on pseudovirus (HIV-1); assay: cell-based or functional assay
[36] = target: HIV-1 93UG077 envelope glycoprotein (Env) on pseudovirus (HIV-1); assay: cell-based or functional assay
[37] = target: HIV-1 94UG103 envelope glycoprotein (Env) on pseudovirus (HIV-1); assay: cell-based or functional assay
[38] = target: HIV-1 APV13 envelope glycoprotein (Env) on pseudovirus (HIV-1); assay: cell-based or functional assay
[39] = target: HIV-1 APV17 envelope glycoprotein (Env) on pseudovirus (HIV-1); assay: cell-based or functional assay
[40] = target: HIV-1 APV6 envelope glycoprotein (Env) on pseudovirus (HIV-1); assay: cell-based or functional assay
[41] = target: HIV-1 CMU02 envelope glycoprotein (Env) on pseudovirus (HIV-1); assay: cell-based or functional assay
[42] = target: HIV-1 JRCSF envelope glycoprotein (Env) on pseudovirus (HIV-1) (UniProt P20871); assay: cell-based or functional assay
[43] = target: HIV-1 JRFL envelope glycoprotein (Env) on pseudovirus (HIV-1); assay: cell-based or functional assay
[44] = target: HIV-1 MGRM-A-010 envelope glycoprotein (Env) on pseudovirus (HIV-1); assay: cell-based or functional assay
[45] = target: HIV-1 MGRM-AG-005 envelope glycoprotein (Env) on pseudovirus (HIV-1); assay: cell-based or functional assay
[46] = target: HIV-1 MGRM-C-026 envelope glycoprotein (Env) on pseudovirus (HIV-1); assay: cell-based or functional assay
[47] = target: HIV-1 MGRM-C-027 envelope glycoprotein (Env) on pseudovirus (HIV-1); assay: cell-based or functional assay
[48] = target: HIV-1 MGRM-C-028 envelope glycoprotein (Env) on pseudovirus (HIV-1); assay: cell-based or functional assay
[49] = target: HIV-1 MGRM-D-001 envelope glycoprotein (Env) on pseudovirus (HIV-1); assay: cell-based or functional assay
[50] = target: HIV-1 MGRM-D-018 envelope glycoprotein (Env) on pseudovirus (HIV-1); assay: cell-based or functional assay
[51] = target: HIV-1 NL43 envelope glycoprotein (Env) on pseudovirus (HIV-1); assay: cell-based or functional assay
[52] = target: aMLV envelope protein on pseudovirus (negative control virus); assay: cell-based or functional assay

B1: PGT-136 (antibody, V domains shown)
VH: QLQLQESGPGLVKPSETLSLTCTVSGGSMRGTDWGENDFHYGWIRQSSAKGLEWIGSIHWRGRTTHYKTSFRSRATLSIDTSNNRFSLTFSFVTAADTAVYYCARHKYHDIFRVVPVAGWFDPWGQGLLVTVSS
VL: EIVMTQSPPTLSVSPGETATLSCRASQNVKNNLAWYQLKPGQAPRLLIFDASSRAGGIPDRFSGSGYGTDFTLTVNSVQSEDFGDYFCQQYEEWPRTFGQGTKVDIK
7.81 µg/mL: Median IC50 against viruses neutralized with an IC50 <50 µg/ml [1]
6.2: Primary Neutralization Index (B cell culture well 5366 P21) [19]
4.75 µg/mL: Median IC50 against viruses neutralized with an IC50 <50 µg/ml [7]
1.1: Primary Neutralization Index (B cell culture well 5366 P21) [18]
0.1 µg/mL: EC50 [28]
13.2 µg/mL: Median IC50 against viruses neutralized with an IC50 <50 µg/ml [4]
> 10 µg/mL: IC50 neutralization [9] | IC50 neutralization [12] | IC50 neutralization [13] | IC50 neutralization [14] | IC50 neutralization [15] | IC50 neutralization [16] | IC50 neutralization [20] | IC50 neutralization [21] | IC50 neutralization [22] | IC50 neutralization [24] | IC50 neutralization [25] | IC50 neutralization [26]
7.52 µg/mL: Median IC50 against viruses neutralized with an IC50 <50 µg/ml [5]
5.5: Primary Neutralization Index (B cell culture well 5366 P21) [17]
0.738 µg/mL: IC50 neutralization [10]
29.1 µg/mL: Median IC50 against viruses neutralized with an IC50 <50 µg/ml [3]
0.2 µg/mL: EC50 [29]
0.0135 µg/mL: IC50 neutralization [11]
0.3 µg/mL: EC50 [27]
2.34 µg/mL: Median IC50 against viruses neutralized with an IC50 <50 µg/ml [2]
0.05 µg/mL: Median IC50 against viruses neutralized with an IC50 <50 µg/ml [6]
0.9: Primary Neutralization Index (B cell culture well 5329 C19) [18]
6.5 ng/mL: IC50 neutralization [23]
18.9 µg/mL: Median IC50 against viruses neutralized with an IC50 <50 µg/ml [8]
5.6: Primary Neutralization Index (B cell culture well 5329 C19) [17]
6: Primary Neutralization Index (B cell culture well 5329 C19) [19]

B2: PGT-136 (5329_C19; 5366_P21) human monoclonal anti-HIV antibody (antibody, V domains shown)
VH: B1 VH
VL: B1 VL
0.0623 µg/mL: neutralization IC80 [35]
6.5 ng/mL: neutralization IC50 [46]
0.0285 µg/mL: neutralization IC80 [46]
> 10 µg/mL: neutralization IC50 [30] | neutralization IC80 [30] | neutralization IC90 [30] | neutralization IC95 [30] | neutralization IC80 [31] | neutralization IC90 [31] | neutralization IC95 [31] | neutralization IC50 [32] | neutralization IC80 [32] | neutralization IC90 [32] | neutralization IC95 [32] | neutralization IC50 [33] | neutralization IC80 [33] | neutralization IC90 [33] | neutralization IC95 [33] | neutralization IC50 [36] | neutralization IC80 [36] | neutralization IC90 [36] | neutralization IC95 [36] | neutralization IC50 [37] | neutralization IC80 [37] | neutralization IC90 [37] | neutralization IC95 [37] | neutralization IC50 [38] | neutralization IC80 [38] | neutralization IC90 [38] | neutralization IC95 [38] | neutralization IC50 [39] | neutralization IC80 [39] | neutralization IC90 [39] | neutralization IC95 [39] | neutralization IC50 [40] | neutralization IC80 [40] | neutralization IC90 [40] | neutralization IC95 [40] | neutralization IC50 [41] | neutralization IC80 [41] | neutralization IC90 [41] | neutralization IC95 [41] | neutralization IC50 [42] | neutralization IC80 [42] | neutralization IC90 [42] | neutralization IC95 [42] | neutralization IC50 [43] | neutralization IC80 [43] | neutralization IC90 [43] | neutralization IC95 [43] | neutralization IC50 [44] | neutralization IC80 [44] | neutralization IC90 [44] | neutralization IC95 [44] | neutralization IC50 [45] | neutralization IC80 [45] | neutralization IC90 [45] | neutralization IC95 [45] | neutralization IC50 [47] | neutralization IC80 [47] | neutralization IC90 [47] | neutralization IC95 [47] | neutralization IC50 [48] | neutralization IC80 [48] | neutralization IC90 [48] | neutralization IC95 [48] | neutralization IC50 [49] | neutralization IC80 [49] | neutralization IC90 [49] | neutralization IC95 [49] | neutralization IC50 [50] | neutralization IC80 [50] | neutralization IC90 [50] | neutralization IC95 [50] | neutralization IC50 [51] | neutralization IC80 [51] | neutralization IC90 [51] | neutralization IC95 [51] | neutralization IC50 [52] | neutralization IC80 [52] | neutralization IC90 [52] | neutralization IC95 [52]
0.738 µg/mL: neutralization IC50 [31]
0.156 µg/mL: neutralization IC90 [35]
0.159 µg/mL: neutralization IC95 [46]
5.97 µg/mL: neutralization IC95 [34]
0.0135 µg/mL: neutralization IC50 [35]
0.0915 µg/mL: neutralization IC50 [34]
0.619 µg/mL: neutralization IC80 [34]
1.96 µg/mL: neutralization IC90 [34]
0.379 µg/mL: neutralization IC95 [35]
0.0687 µg/mL: neutralization IC90 [46]
